From paper PMC3909728

Tested on: eVP35 IID WT (Ebola virus (EBOV))
Experiment: filter binding

Substance: dsRNA
- binding signal (fraction bound): < 0.3
